Data as given in patent publication US20240336683A1 (published 2024).

T1: full-length human Siglec15 with C-terminal flag and Myc tags on HEK293 cells (human, UniProt Q6ZMC9 20-328)
T1 construct: whole, on cells; also called Siglec15/HEK293; HEK293-Siglec 15; not shown: C-terminal flag and Myc tags from pCMV6-Entry vector
T1 sequence (looked up): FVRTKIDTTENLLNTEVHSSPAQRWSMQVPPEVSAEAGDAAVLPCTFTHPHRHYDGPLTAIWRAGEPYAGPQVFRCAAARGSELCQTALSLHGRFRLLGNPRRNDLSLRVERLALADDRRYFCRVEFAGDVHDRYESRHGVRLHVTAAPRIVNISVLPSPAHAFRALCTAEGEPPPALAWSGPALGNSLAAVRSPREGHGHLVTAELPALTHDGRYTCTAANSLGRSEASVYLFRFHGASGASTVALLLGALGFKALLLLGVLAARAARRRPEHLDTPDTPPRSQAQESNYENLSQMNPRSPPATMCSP

T2: human Siglec 15-HIS tagged recombinant protein (human, UniProt Q6ZMC9 20-263)
T2 construct: Recombinant soluble protein; also called rhSiglec15 His; human Siglec15-HIS tagged protein; not shown: HIS tag
T2 sequence (looked up): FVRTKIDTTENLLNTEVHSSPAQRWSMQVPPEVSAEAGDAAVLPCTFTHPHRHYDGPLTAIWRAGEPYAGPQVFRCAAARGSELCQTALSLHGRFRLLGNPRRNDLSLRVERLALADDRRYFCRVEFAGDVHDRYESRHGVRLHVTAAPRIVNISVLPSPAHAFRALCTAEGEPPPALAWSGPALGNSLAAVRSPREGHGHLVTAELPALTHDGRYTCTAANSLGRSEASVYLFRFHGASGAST

T3: rmouseSiglec15 His (mouse, UniProt A7E1W8 20-262)
T3 sequence: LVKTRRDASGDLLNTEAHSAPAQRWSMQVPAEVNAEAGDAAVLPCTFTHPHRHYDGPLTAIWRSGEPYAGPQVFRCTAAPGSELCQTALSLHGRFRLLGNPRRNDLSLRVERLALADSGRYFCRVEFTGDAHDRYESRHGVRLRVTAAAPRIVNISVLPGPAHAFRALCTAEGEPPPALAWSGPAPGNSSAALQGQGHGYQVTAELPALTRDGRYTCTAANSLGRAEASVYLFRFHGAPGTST

T4: rcynoSiglec15 His (cyno, UniProt A0A2K5UY47 20-262)
T4 construct: not shown: His tag
T4 sequence: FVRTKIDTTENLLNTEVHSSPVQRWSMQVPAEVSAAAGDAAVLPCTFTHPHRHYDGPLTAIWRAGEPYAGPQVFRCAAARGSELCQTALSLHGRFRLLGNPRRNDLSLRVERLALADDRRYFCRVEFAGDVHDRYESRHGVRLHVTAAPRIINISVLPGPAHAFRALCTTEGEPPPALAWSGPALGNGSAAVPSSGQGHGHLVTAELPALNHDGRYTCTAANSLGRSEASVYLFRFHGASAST

B1: 2020EP032-B03 IgG (antibody, V domains shown)
VH: QVQLQQWGAGLLKPSETLSLTCAVYGGSFSGYYWSWIRQPPGKGLEWIGEINHSGSTNYNPSLKSRVTISVDTSKNQFSLKLSSVTAADTAVYYCARGPLRKYYDFWSGSRNYYYYGMDVWGQGTTVTVSS
VL: QPVLTQDPAVSVALGQTVRITCQGDSLRSNYASWYQLKPGQAPVLVIYDKNNRPSGIPDRFSGSNSGNTASLTIAGAQAEDEADYYCTSRDSSGTVFGGGTKLTVL
notes: IgG form expressed in ExpiHEK293-F cells; detected with anti-hFc; also called 2020EP32-B03
B2: 2020EP032-H11 IgG (antibody, V domains shown)
VH: EVQLVESGGGLVKPGGSLRLSCAASGFTFSSYSMNWVRQAPGKGLEWVSSISSSSSYIYYADSVKGRFTISRDNAKNSLYLQMNSLRAEDTAVYYCARDYRGYSGQNYYGMDVWGQGTTVTVSS
VL: QSALTQPPSVSAAPRQKVTISCSGSSSNIGNNDVSWYQQLPGTVPKLLIYDNNKRPSGIPDRFSGSKSGTSASLGITGLQTGDEADYYCGVWDSSLSGYVFGTGTKVTVL
notes: IgG form expressed in ExpiHEK293-F cells; detected with anti-hFc; also called 2020EP32-H11; H11 mAb
B3: 2019EP47-A02 IgG (antibody, V domains shown)
VH: EVQLVQSGGGVVQPGRSLRLSCAASGFTFSSYAMHWVRQAPGKGLEWVAVISYDGSNKYYADSVKGRFTISRDNSKNTLYLQMNSLRAEDTAVYYCARSRYSSSLRRYYGMDVWGQGTTVTVSS
VL: AIQLTQSPSSLSASVGDRVTITCQATHDIANYLNWYQQKPGKAPKLLIYAASNLETGVPSRFSGSGSGTDFTFAISSLQPEDIAVYYCQQYDNLPLTFGGGTKVEIK
notes: IgG form expressed in ExpiHEK293-F cells; detected with anti-hFc
B4: 2019EP47-A10 IgG (antibody, V domains shown)
VH: QMQLVQSGGGVVQPGRSLRLSCAASGFTFSSYGMHWVRQAPGKGLEWVAVISYDGSNKYYADSVKDRFTISRDNSKNTLYLQMNSLRAEDTAVYYCAKDIVGDSGSYPIYYYYGMDVWGQGTTVTVSS
VL: SQSALTQPHSVSESPGKTVTISCTRSSGSIASNYVQWYQQRPGSAPSTVIYEDNQRPSGVPDRFSGSVDISSNSASLTISGLQTEDEADYYCQSYDNDNMVFGGGTKLTVL
notes: as for B3

Tests used:
[1] = target: T1, full-length human Siglec15 with …; assay: FACS on Siglec15/HEK293 cells, IgG, anti-hFc Alexa fluor 647
[2] = target: T2, human Siglec 15-HIS tagged recombinant …; assay: ELISA; His-tagged Siglec15 coated, IgG titrated, anti-hFc HRP
Experimental: (§1) An ELISA assay was developed to determine the EC50 of anti-Siglec15 IgG antibodies. Briefly, a 384 well plate was immobilized with human Siglec 15-HIS tagged recombinant protein at a final concentration of 2 ug/mL in 1×PBS in total volume of 25 uL per well. The plate was incubated overnight at 4° C. followed by blocking with 80 uL of superblock per well for 1 hour. Titration of purified anti-Siglec15 IgG was performed, starting at 200 nM 2-fold serial dilution, then 25 uL was added to the human Siglec15 immobilized wells and incubated for 1 hour with shaking. The Siglec15 binding was detected by adding 25 uL of anti-hFc HRP diluted at 1:5000 in 1×PBST. In between each step, the plate was washed 3 times with 1×PBST in a plate washer. The plate was then developed with 20 ul of TMB substrate for 5 mins and stopped by adding 20 ul of 2N sulfuric acid. The plate was read at OD450 nm Biotek plate reader and then plotted in Prism 8.1 software. Similar binding experiments were done for mouse Siglec15 and cyno Siglec15 to check the cross activity of the IgG antibodies to those two species.

[3] = target: T3, rmouseSiglec15 His; assay: as above
Experimental: as §1

[4] = target: T4, rcynoSiglec15 His; assay: as above
Experimental: as §1

[5] = target: T2, human Siglec 15-HIS tagged recombinant …; assay: SPR Biacore T200; IgG captured on Protein A chip, Siglec15-HIS as analyte
Experimental: Kinetic analysis of anti-Siglec15 IgG was assessed by SPR technology with Biacore T200. The assay was run with Biacore T200 control software version 2.0. For each cycle, 1 ug/mL of anti-Siglec15 IgG was captured for 60 seconds at flow rate of 10 ul/min on flow cell 2 in 1× HBSP buffer on Protein A sensor chip. 2-fold serial human Siglec15-HIS tagged protein was injected onto both reference flow cell 1 and anti-Siglec15 IgG captured flow cell 2 for 150 seconds at flow rate of 30 ul/mins followed by wash for 300 seconds. The flow cells were then regenerated with Glycine pH2 for 60 seconds at flow rate of 30 ul/mins. 8 concentration points from 100-0 nM were assayed per anti-Siglec15 IgG in a 96 well plate. The kinetics of Anti-Siglec15 IgG binding to Siglec 15 protein was analyzed with Biacore T200 evaluation software version 3.0. The specific binding response unit was derived from subtraction of binding to reference flow cell 1 from antibody captured flow cell 2.

Row | Binder | EC50 [1] [nM] | EC50 [2] [nM] | EC50 [3] [nM] | EC50 [4] [nM] | Kd [5] [nM] | koff [5] [s⁻¹]
1 | B1 | 1.92 | 0.527 | 0.248 | 1.21 |  | 
2 | B2 | 0.022 | 0.0228 | 0.0105 | 0.0258 |  | 
3 | B3 | 0.35 | 0.0289 |  |  | 2.4 | 0.000311
4 | B4 |  | 0.119 | 0.109 | 0.171 | 3.8 | 0.000368
